In patent publication US20150017665A1, “Peptides and Methods for Detecting MPO-ANCA” (The University of North Carolina at Chapel Hill, priority 2012, published 2015):
Values belong to the molecule of their own block, whether it stands above or below them.

Key:
mice = conditions: Ooi et al. 2012; cited from earlier work
[1] = tested on: anti-MPO^447-459 autoantibody; assay: Epitope masking ELISA with ceruloplasmin and its fragments; type: binding, human; conditions: ELISA
Excerpt: (§1) Serum proteins that bound immobilized MPO peptide aa447-459 were eluted and sequenced for identification. […] Sequenced on a 4800 MALDI TOF-TOF, the protein was identified as ceruloplasmin (CP), and confirmed by western blot analysis probed with a rabbit anti-human anti-CP polyclonal antibody (Abeam). Native CP was purchased (Enzo Life Science) and proteolytically digested in vitro by plasmin (Haemtech).
(§2) To isolate the putative serum factor, immobilized MPO aa447-459 peptide was used as bait to fish-out host proteins with binding capacity. […] However, the CP bound to aa447-459 was primarily a 50 kD protein on sodium dodecyl sulfate polyacrylamide gel electrophoresis (SDS-PAGE), while full length CP is 151 kD (FIG. 6D). An anti-ceruloplasmin western blot confirmed the fragment to be a portion of CP (FIG. 6E). To test the role of proteolytic cleavage in generating the blocking factor, a plasmin-generated fragment of CP (Kingston et al., Proc. Natl. Acad. Sci. USA 74:5377 (1977)) was tested for epitope masking capability (FIG. 6F).

[2] = tested on: MPO-ANCA IgG (polyclonal); assay: Effect of CP on binding of polyclonal MPO-ANCA Ig to native MPO (ELISA); design: species or system human; conditions: MPO-ANCA IgG from four patients
Excerpt: as §2

MPO peptide aa447-459 = target: T1, MPO peptide aa447-459 (Homo sapiens, UniProt P05164); assay: Serum proteins binding to immobilized MPO peptide aa447-459; conditions: identified by mass spectrometry
T1 construct: made in house; host or cells: chemical synthesis (a peptide core is named only for the ELISA peptides)
Excerpt: as §1, §2

Molecule: PRWNGEKLYQEARKIVGAMV (listed as Homo sapiens) [murine MPO peptide aa409-428]
- induction of glomerulonephritis (mice): induces glomerulonephritis in mice

- effect on binding of polyclonal MPO-ANCA Ig to native MPO [2]: unaffected
B1: full length CP: full length ceruloplasmin, 151 kD, purchased (Enzo Life Science) (protein)
chain: KEKHYYIGIIETTWDYASDHGEKKLISVDTEHSNIYLQNGPDRIGRLYKKALYLQYTDETFRTTIEKPVWLGFLGPIIKAETGDKVYVHLKNLASRPYTFHSHGITYYKEHEGAIYPDNTTDFQRADDKVYPGEQYTYMLLATEEQSPGEGDGNCVTRIYHSHIDAPKDIASGLIGPLIICKKDSLDKEKEKHIDREFVVMFSVVDENFSWYLEDNIKTYCSEPEKVDKDNEDFQESNRMYSVNGYTFGSLPGLSMCAEDRVKWYLFGMGNEVDVHAAFFHGQALTNKNYRIDTINLFPATLFDAYMVAQNPGEWMLSCQNLNHLKAGLQAFFQVQECNKSSSKDNIRGKHVRHYYIAAEEIIWNYAPSGIDIFTKENLTAPGSDSAVFFEQGTTRIGGSYKKLVYREYTDASFTNRKERGPEEEHLGILGPVIWAEVGDTIRVTFHNKGAYPLSIEPIGVRFNKNNEGTYYSPNYNPQSRSVPPSASHVAPTETFTYEWTVPKEVGPTNADPVCLAKMYYSAVEPTKDIFTGLIGPMKICKKGSLHANGRQKDVDKEFYLFPTVFDENESLLLEDNIRMFTTAPDQVDKEDEDFQESNKMHSMNGFMYGNQPGLTMCKGDSVVWYLFSAGNEADVHGIYFSGNTYLWRGERRDTANLFPQTSLTLHMWPDTEGTFNVECLTTDHYTGGMKQKYTVNQCRRQSEDSTFYLGERTYYIAAVEVEWDYSPQREWEKELHHLQEQNVSNAFLDKGEFYIGSKYKKVVYRQYTDSTFRVPVERKAEEEHLGILGPQLHADVGDKVKIIFKNMATRPYSIHAHGVQTESSTVTPTLPGETLTYVWKIPERSGAGTEDSACIPWAYYSTVDQVKDLYSGLIGPLIVCRRPYLKVFNPRRKLEFALLFLVFDENESWYLDDNIKTYSDHPEKVNKDDEEFIESNKMHAINGRMFGNLQGLTMHVGDEVNWYLMGMGNEIDLHTVHFHGHSFQYKHRGVYSSDVFDIFPGTYQTLEMFPRTPGIWLLHCHVTDHIHAGMETTYTVLQNEDTKSG
- epitope masking capability [1]: did not
- epitope masking capability ([1]; listed as full-length CP): did not mask the epitope
- binding to immobilized MPO aa447-459 peptide (MPO peptide aa447-459): identified by mass spectrometry as a binding partner
